Test results: CN112375147A (THE THIRD AFFILIATED HOSPITAL NAVAL MEDICAL UNIV OF PLA, dated 2021)

Target: T1, YKL-40 (native, secreted); in serum of patients with hepatocellular carcinoma lung metastasis and in culture … (human, UniProt P36222 22-383)
T1 construct: mature; Endogenous secreted protein, not a recombinant construct; also called Chi3l1; BRP39
Assay: ELISA of YKL-40 left detectable in patient serum (1:100) after overnight incubation at 4 C with 10 ug/mL antibody, IgG control

T1 sequence (P36222 22-383): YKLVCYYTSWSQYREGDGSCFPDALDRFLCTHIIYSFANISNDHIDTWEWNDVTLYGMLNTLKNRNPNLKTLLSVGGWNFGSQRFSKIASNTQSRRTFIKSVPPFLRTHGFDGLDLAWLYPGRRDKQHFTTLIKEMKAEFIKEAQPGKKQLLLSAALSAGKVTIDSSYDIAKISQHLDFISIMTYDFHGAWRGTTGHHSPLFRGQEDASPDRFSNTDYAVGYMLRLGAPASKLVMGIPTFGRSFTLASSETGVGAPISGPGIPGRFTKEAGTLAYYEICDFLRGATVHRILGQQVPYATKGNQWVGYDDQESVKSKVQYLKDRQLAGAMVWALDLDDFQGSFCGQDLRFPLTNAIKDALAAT

- binding result: binds
B1: 抗人YKL-40中和性单克隆抗体 (antibody, V domains shown)
VH: EVKLEESGGGLVQPGGSMKLSCAASGFTLSDAWMDWVRQSPEKGLEWVAEIRSKGNNHTPYYAESVKGRFTISRDDSRNSVYLQMNTLRAEDTGTYYCTRTVYYYGSSSCAMDYWGQGTSVTVSS
VL: DIQMTQSPASLSASVGETVTITCGASENIYGALNWYQRKQGKSPQLLIFGASNLADDMSSRFSGSGSGRQYSLKISSLHPDDVATYFCQNVLRTPWTFGGGTNLEIK
notes: Monoclonal antibody from mouse immunisation (hybridoma Hyb-NAY); also called N-AY; YKL-40中和性单抗
